# According to article PMC3985676:
# Target: BswR (Bacterial SWarming Regulator), PA2780 (Pseudomonas aeruginosa)
# Assay: SEC; gel filtration profile during protein purification; HiLoad Superdex 75 26/60; 20 mM Tris pH 7.5, 200 mM NaCl, 5 mM beta-ME
substance,measurement,value
"BswR (Bacterial SWarming Regulator), PA2780 (natural protein)",stoichiometry N,2
